One assay addresses T1, EHEC intimin (Escherichia coli O157:H7 EDL933 (EHEC), UniProt P43261).
T1 construct: also called recombinant intimin (EHEC)
Description: ELISA; dilution ELISA; purified antigen coated directly on Nunc Maxisorp wells, typically 1 μg/mL in PBS overnight at 4°C, blocked with 4% milk in PBS 0.1% Tween; thioredoxin/VHH/E-tag from 125 nM in 1:5 serial dilutions, 1 h 37°C; detected with HRP anti-E-tag; EC50 estimates (apparent affinity); Trace = EC50 >125 nM, poor but detectable. As to conditions: both partners purified.

In assay [1] the target is T2, MC1061 expressing EHEC intimin (Escherichia coli O157:H7 EDL933 (EHEC), UniProt P43261).
T2 construct: also called E. coli 1061/pInt (EHEC); EHEC intimin expressed on the surface of strain MC1061
T2 sequence (P43261 40-934): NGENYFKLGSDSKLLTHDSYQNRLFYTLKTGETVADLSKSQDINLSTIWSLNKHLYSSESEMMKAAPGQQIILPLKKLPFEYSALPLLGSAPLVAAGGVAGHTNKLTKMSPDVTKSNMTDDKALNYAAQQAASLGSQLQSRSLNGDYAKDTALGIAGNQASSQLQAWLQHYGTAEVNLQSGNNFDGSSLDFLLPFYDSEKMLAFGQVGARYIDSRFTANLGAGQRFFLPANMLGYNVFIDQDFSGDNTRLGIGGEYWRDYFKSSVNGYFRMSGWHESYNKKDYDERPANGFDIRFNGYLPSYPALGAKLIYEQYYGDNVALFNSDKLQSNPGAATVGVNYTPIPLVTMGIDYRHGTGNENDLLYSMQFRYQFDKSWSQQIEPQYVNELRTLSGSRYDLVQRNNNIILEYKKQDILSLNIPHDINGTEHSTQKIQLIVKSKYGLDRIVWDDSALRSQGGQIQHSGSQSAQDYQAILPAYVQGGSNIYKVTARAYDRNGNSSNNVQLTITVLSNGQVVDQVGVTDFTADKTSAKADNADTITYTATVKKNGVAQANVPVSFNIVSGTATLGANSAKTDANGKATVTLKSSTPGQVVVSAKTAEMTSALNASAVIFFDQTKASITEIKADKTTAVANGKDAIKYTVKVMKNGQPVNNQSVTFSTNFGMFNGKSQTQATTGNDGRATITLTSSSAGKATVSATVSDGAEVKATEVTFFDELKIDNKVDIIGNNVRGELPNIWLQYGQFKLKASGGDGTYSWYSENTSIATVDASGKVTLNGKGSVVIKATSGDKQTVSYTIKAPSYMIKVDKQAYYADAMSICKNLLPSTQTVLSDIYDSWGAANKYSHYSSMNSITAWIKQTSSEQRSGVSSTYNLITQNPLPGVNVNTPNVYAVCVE
Description: ELISA; dilution ELISA with intimin displayed on the surface of E. coli MC1061 as antigen; soluble thioredoxin/VHH/E-tag; EC50 estimates (apparent affinity). Particulars: one partner purified.

The target in another assay is T3, MC1061 /EPEC intimin (Escherichia coli O127:H6, JPN15 …, UniProt P19809).
T3 construct: also called E. coli 1061/pInt (EPEC); EPEC intimin expressed on the surface of strain MC1061
T3 sequence (P19809 42-939): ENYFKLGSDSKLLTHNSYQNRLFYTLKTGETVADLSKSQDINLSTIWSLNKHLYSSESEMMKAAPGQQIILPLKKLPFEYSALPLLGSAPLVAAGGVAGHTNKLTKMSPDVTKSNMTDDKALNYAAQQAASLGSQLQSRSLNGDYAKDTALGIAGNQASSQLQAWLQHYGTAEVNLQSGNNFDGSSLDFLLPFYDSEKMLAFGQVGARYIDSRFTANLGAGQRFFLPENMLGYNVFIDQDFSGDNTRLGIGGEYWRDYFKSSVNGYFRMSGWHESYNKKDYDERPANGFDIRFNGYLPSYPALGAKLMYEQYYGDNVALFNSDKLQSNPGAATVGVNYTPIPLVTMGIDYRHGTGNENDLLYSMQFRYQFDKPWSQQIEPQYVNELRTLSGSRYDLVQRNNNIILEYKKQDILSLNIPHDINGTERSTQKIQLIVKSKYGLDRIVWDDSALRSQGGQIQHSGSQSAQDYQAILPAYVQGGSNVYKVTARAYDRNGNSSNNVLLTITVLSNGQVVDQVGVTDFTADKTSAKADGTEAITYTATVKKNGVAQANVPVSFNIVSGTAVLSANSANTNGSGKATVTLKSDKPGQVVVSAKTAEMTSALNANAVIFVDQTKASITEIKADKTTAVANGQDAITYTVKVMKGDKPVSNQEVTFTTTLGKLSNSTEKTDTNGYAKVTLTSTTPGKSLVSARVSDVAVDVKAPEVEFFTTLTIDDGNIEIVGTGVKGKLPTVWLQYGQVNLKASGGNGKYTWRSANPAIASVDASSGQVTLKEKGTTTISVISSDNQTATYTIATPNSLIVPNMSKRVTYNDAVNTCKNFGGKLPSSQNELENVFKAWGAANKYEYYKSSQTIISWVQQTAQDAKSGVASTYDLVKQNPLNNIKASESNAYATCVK
The assay is described as above. Particulars: one partner purified.

The target of the next assay is T4, EPEC intimin (Escherichia coli O127:H6 E2348/69 (EPEC), UniProt P19809).
T4 construct: also called recombinant intimin (EPEC)
Description: ELISA; dilution ELISA; purified antigen coated directly on Nunc Maxisorp wells, typically 1 μg/mL in PBS overnight at 4°C, blocked with 4% milk in PBS 0.1% Tween; thioredoxin/VHH/E-tag from 125 nM in 1:5 serial dilutions, 1 h 37°C; detected with HRP anti-E-tag; EC50 estimates (apparent affinity); Trace = EC50 >125 nM, poor but detectable. As to conditions: both partners purified.

Another assay deals with C. rodentium intimin (Citrobacter rodentium DBS100, UniProt Q07591). Kind of assay: ELISA; EC50 told in footnote g of Table 1; form of the C. rodentium intimin antigen not stated. A general note: ELISA stands for enzyme-linked immunosorbent assay.
C. rodentium intimin, sequence (Q07591 42-936): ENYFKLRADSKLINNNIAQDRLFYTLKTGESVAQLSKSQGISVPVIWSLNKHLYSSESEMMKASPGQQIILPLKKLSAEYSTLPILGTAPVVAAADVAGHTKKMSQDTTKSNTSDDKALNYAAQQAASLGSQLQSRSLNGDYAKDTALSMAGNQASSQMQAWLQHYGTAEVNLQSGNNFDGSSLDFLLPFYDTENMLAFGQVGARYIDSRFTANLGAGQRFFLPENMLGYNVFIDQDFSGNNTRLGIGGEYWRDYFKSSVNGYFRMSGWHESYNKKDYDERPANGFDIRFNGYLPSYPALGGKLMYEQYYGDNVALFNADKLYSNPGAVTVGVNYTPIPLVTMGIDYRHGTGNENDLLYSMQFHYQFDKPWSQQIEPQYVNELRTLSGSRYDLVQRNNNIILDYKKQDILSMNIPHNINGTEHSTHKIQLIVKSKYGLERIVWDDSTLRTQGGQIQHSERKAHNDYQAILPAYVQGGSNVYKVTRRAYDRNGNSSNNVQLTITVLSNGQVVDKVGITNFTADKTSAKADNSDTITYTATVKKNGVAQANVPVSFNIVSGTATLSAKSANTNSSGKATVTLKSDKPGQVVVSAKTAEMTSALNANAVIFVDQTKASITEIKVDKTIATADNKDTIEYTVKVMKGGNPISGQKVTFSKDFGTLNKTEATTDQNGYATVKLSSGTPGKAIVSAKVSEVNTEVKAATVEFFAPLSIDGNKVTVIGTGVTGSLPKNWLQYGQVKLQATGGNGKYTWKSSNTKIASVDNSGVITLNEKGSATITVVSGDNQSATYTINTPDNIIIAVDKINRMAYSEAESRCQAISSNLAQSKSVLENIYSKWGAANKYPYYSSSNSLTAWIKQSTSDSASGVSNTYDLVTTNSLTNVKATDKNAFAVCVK
Another assay addresses EPEC flagella (Escherichia coli O127:H6 E2348/69 (EPEC), UniProt B7USU2). Description: ELISA; dilution ELISA; purified antigen coated directly on Nunc Maxisorp wells, typically 1 μg/mL in PBS overnight at 4°C, blocked with 4% milk in PBS 0.1% Tween; thioredoxin/VHH/E-tag from 125 nM in 1:5 serial dilutions, 1 h 37°C; detected with HRP anti-E-tag; EC50 estimates (apparent affinity); Trace = EC50 >125 nM, poor but detectable. Particulars: both partners purified.

In the next assay the target is T5, EPEC FliC (Escherichia coli EPEC, likely O127:H6 …, UniProt B7USU2).
T5 construct: also called EPEC rFliC; recombinant FliC
T5 sequence (B7USU2 2-548): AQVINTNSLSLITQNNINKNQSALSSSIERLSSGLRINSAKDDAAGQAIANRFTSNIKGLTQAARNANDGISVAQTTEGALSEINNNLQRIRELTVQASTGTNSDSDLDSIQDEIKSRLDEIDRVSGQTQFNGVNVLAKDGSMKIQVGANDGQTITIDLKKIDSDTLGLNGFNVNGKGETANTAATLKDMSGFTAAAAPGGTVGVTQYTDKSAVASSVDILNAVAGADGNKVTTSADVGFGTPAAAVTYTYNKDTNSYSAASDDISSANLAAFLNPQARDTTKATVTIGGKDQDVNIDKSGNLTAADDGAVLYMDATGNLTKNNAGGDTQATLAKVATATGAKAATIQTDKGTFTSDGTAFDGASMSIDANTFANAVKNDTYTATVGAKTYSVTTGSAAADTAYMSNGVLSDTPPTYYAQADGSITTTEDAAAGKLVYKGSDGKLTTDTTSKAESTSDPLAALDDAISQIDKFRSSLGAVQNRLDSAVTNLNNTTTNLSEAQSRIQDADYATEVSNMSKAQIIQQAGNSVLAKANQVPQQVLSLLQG
The assay is described as above. As to conditions: both partners purified.

Results on five molecules are retold here after paper PMC9477280 (PLoS Pathogens, 2022).

T1 sequence (P43261 40-934): as the sequence (P43261 40-934) above
EPEC flagella, sequence (B7USU2 2-548): as the sequence (B7USU2 2-548) above

B1: JWU-G8 (VHH)
VHH: SGGGLVQPGGSLRLSCATSGFYFAGYWMHWVRQVPGQGLEWVSGIDLGSTMLNYRDSVKGRFSISRDNAKNTVYLQMHSLKPEDTALYFCARDRRAGATSGGYDPDVRGQGTQVTVSS
notes: also called αInt-17; JWZ-15 (vector name)
With B1, the values for the binding result (with EHEC intimin; in assay [1]) were “no binding (tested: 125 nM (highest VHH concentration))” and “binds”, respectively. In the assay with MC1061 /EPEC intimin, the EC50 (as a rule, the midpoint of the concentration-response curve) was 500 pM.

B2: JXN-E2 (VHH)
VHH: TGGLVPPGGSLQLSCTSSGFFLDYLGVAWFRQAPGNEREGVSCIDYTGDNIAYASSMKGRATISRDKDANTVTLEMNGLKPEDTAVYYCAAHRSATTYADGKYRCPLENEYDYWGQGIQVTVSS
notes: also called JXS-2 (vector name); not shown: thioredoxin, N-terminal, kept; E-tag, C-terminal, kept
For B2, the binding result with EPEC intimin, with EHEC intimin and with MC1061 /EPEC intimin was “no binding (tested: 125 nM (highest VHH concentration))” each time. The EC50 in the assay with C. rodentium intimin was about 500 pM.

B3: JUV-C4 (VHH)
VHH: TGGGLVQAGGSLTLSCVASGRAVSSFAMGWFRQIPGREQRDFVAFIGDYGLTTYYANSVKGRFTISRSNAENTLYLQMNSLEFEDAAVYFCAARDAYRSGTTNPSAYDYWGQGTQVTVSS
notes: also called αFla-2; JVE-4 (vector name); not shown: thioredoxin, N-terminal, kept; E-tag, C-terminal, kept
With B3, the EC50 with EPEC flagella was 1000 pM; in the assay with EPEC FliC, 300 pM.

B4: JWU-D8 (VHH)
VHH: TGGGLVQPGGSLRLSCAASGFYFSGYWMHWVRQVQGQGLKWVSGINIDDTKSSYTDSVKGRFTISRDNTKNTLYLQMDSLQPEDTGVYYCARDRRAGQISGGYDPDYRGQGTQVTVSS
notes: also called αInt-14; JWZ-9 (vector name)
In the case of B4, the binding result in assay [1] is “binds”. For the same molecule, the EC50 with MC1061 /EPEC intimin was 500 pM.

B5: JWS-H4 (VHH)
VHH: SGGGLVQAGGSLRLSCTTSASIFSGYRMGWFRQAPGKQREFVASIADGQNTPYADSVMGRFTISRDNAKNTVYLQMSNLKPEDTAIYYCKSWGYTDWGQGTQVTVSS
notes: also called αInt-12; JWZ-5 (vector name)
Consider B5, for which the binding result in assay [1] is on record as “binds”. In addition, in the assay with MC1061 /EPEC intimin, the EC50 is 10000 pM.
